The values below come from paper PMC10691696, “ZmEREB92 plays a negative role in seed germination by regulating ethylene signaling and starch mobilization in maize”.

This data set has as its target ZmEREB92 (Zea mays, UniProt B6SIZ8 1-233). The data set is described as follows: EMSA; 200x unlabeled probe used as competitor; EMSA: 0.2 pmol biotin probe with ZmEREB92-His, 30 min at 28 °C, 6.5% native PAGE, chemiluminescence kit (Beyotime); buffer, salt and pH not given. The conditions noted are these: protein: recombinant; tags: His-tag (C-terminal as stated; pET32a vector); label: biotin; blunt. On the technique in general: A gel shift assay detects complexes by their altered migration in electrophoresis.

ZmEREB92, sequence (B6SIZ8 entry or part of it): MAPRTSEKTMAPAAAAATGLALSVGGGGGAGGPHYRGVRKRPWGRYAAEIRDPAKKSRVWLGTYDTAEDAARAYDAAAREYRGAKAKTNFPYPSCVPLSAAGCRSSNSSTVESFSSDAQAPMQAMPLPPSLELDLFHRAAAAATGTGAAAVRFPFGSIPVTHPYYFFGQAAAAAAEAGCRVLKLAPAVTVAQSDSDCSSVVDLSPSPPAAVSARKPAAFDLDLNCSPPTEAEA

B1: pAMYa2-A (dsDNA)
DNA 1: TCAAGAATTTAAGGCGGCGAAAGCCGAC
DNA 2: GTCGGCTTTCGCCGCCTTAAATTCTTGA
On to B1, for which the binding result is on record as “binds”.

B2: pAMYa2-C (dsDNA)
DNA 1: TCGTCGTCTCGCCGCCGCCGCCGCCGCCGCAACGGGTCT
DNA 2: AGACCCGTTGCGGCGGCGGCGGCGGCGGCGAGACGACGA
On to B2, for which the binding result was “binds”.
